Patent US20220227811A1
Where “and” joins values, the source holds several entries; their conditions need not be identical. Identical values can stand only once. Starred links: 1 amine or outer side, 2 acyl side, 3 side chain; linkers in the order of their positions; H or OH if unused. Positions of bridges follow the written chain, without caps; N, C: chain ends. Non-standard residues stand in square brackets, D forms with d. Chains are numbered I, II in the order given. No end group written: not given here. *: point of attachment. TATA = O=C(CC[*:1])N1CN(C(=O)CC[*:2])CN(C(=O)CC[*:3])C1; d1Nal = N[C@H](Cc1cccc2ccccc12)C(=O)O; Hyp = O=C(O)[C@@H]1C[C@@H](O)CN1; hArg = N=C(N)NCCCC[C@H](N)C(=O)O; tBuAla = CC(C)(C)C[C@H](N)C(=O)O; Nle = CCCC[C@H](N)C(=O)O; Pent4ynoyl = C#CCCC(=O)*

Assays:
[1] = target: human EphA2 protein (human), P29317; experiment: SPR (Biacore), biotinylated human EphA2 captured on a streptavidin chip, BCY13272 as analyte, 1:1 fit (Scrubber)
[2] = target: human EphA2 protein (human), P29317; experiment: SPR (Biacore T200), biotinylated EphA2 captured on a streptavidin chip, peptide as analyte, 1:1 fit
[3] = target: CD137 on Jurkat reporter cells (Promega CD137 luciferase reporter assay, kit CS196005), Q07011; experiment: cell-based or functional assay
[4] = target: CD137 on human PBMCs (anti-CD3 stimulated, co-culture assay) (human), Q07011; experiment: cell-based or functional assay
[5] = target: Recombinant human CD137 (R&D systems) (human), Q07011; experiment: SPR (Biacore), biotinylated human CD137 captured on a streptavidin chip, BCY13272 as analyte, 1:1 fit (Scrubber)
Sequence of Recombinant human CD137 (R&D systems) (human), Q07011 (Q07011 24-186 limits assumed): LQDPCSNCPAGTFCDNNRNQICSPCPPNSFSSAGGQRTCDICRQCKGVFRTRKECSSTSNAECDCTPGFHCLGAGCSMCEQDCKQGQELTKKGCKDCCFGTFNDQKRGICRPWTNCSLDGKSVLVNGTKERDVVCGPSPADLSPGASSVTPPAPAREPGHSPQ

Sequence of CD137 on Jurkat reporter cells (Promega CD137 luciferase reporter assay, kit CS196005), Q07011 (Q07011 24-255 limits assumed): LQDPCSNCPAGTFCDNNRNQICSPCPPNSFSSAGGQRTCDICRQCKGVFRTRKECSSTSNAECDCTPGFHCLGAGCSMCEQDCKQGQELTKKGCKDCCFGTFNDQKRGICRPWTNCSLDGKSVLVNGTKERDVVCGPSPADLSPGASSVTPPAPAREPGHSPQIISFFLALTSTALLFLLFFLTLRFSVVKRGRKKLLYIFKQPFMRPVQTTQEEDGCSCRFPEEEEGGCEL
Sequence of human EphA2 protein (human), P29317 (P29317 25-534 limits assumed): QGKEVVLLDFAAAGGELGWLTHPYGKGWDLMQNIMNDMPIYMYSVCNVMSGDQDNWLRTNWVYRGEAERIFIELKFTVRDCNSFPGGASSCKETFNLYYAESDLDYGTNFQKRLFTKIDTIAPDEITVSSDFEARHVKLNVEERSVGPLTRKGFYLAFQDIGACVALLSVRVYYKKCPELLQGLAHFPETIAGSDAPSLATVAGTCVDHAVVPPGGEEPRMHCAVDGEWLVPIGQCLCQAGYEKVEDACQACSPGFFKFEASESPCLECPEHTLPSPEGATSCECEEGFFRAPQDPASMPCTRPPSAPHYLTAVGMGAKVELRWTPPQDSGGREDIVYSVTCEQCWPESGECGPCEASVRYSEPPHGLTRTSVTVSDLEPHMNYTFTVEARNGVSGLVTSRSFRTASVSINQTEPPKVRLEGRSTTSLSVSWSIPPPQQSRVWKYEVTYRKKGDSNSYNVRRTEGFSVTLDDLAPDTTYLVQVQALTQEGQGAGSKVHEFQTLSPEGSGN
Sequence of CD137 on human PBMCs (anti-CD3 stimulated, co-culture assay) (human), Q07011 (Q07011 24-255): as the sequence (Q07011 24-255 limits assumed) above

B1: EphA2/CD137 heterotandem bicyclic peptide complex BCY13272 (peptide)
peptide 1: A[hArg]DC[Hyp]LVNPLCLEP[d1Nal]WTC
peptide 2: Ac-C[tBuAla]PE[dK](Pent4ynoyl)PYCFADPY[Nle]CA
modifications: linker I:4-I:11-I:18, II:1-II:8-II:15 via TATA; not fully specified (N-terminus, bridges); also: chain 1 N-terminus coupled to N-(acid-PEG3)-N-bis(PEG3-azide) linker, D-Lys(PYA) of chain 2 clicked (triazole) to linker azide arm, complex has a second BCY8928 copy not listed as a chain
Work on B1 yielded a koff [1] of 0.00102 s⁻¹, a kon [1] of 502000 M⁻¹ s⁻¹ and a Kd [2] of 2 nM. The EC50 (nM), CD137 luciferase reporter assay, co-culture with EphA2 cell line A549 [3] was 0.107 nM and 0.132 nM and 0.147 nM, the EC50 (nM), CD137 luciferase reporter assay, co-culture with EphA2 cell line HT-29 [3] was 0.567 nM and 0.187 nM and 0.205 nM and the EC50 (nM), CD137 luciferase reporter assay, co-culture with EphA2 cell line PC-3 [3] was 0.245 nM and 0.0805 nM and 0.0898 nM. For the same binder, the Emax (fold induction over background), CD137 luciferase reporter assay, co-culture with EphA2 cell line A549 [3] was 23.6 fold and 30.2 fold and 25.7 fold, the Emax (fold induction over background), CD137 luciferase reporter assay, co-culture with EphA2 cell line HT-29 [3] was 36.5 fold and 26 fold and 36.4 fold and the Emax (fold induction over background), CD137 luciferase reporter assay, co-culture with EphA2 cell line PC-3 [3] was 44.5 fold and 44.2 fold and 53 fold. It also gave a Geo mean EC50/cell line, CD137 luciferase reporter assay, co-culture with EphA2 cell line A549 [3] of 0.127 nM, a Geo mean EC50/cell line, CD137 luciferase reporter assay, co-culture with EphA2 cell line HT-29 [3] of 0.279 nM and a Geo mean EC50/cell line, CD137 luciferase reporter assay, co-culture with EphA2 cell line PC-3 [3] of 0.117 nM. It also gave an EC50 (nM) of IL-2 cytokine secretion, human PBMC co-culture with HT-1080 cells (N = 4) [4] of 0.55 nM, an EC50 (nM) of IL-2 cytokine secretion, human PBMC co-culture with MC38 cells (N = 5) [4] of 0.79 nM and a Kd [5] of less than 0.0331 nM. For the same binder, the koff [5] was less than 1e-05 s⁻¹ and the kon [5] was 302000 M⁻¹ s⁻¹.
